Test results taken from publication PMC12052392 (PLOS Pathogens, 2025).

Experiments:
[1] = biological target: SARS-CoV spike (S) protein expressed on HEK-293T cells (SARS-CoV, GenBank AY278554.2, UniProt P59594); assay: flow cytometry on cells; conditions: one partner purified
[2] = biological target: SARS-CoV-2 spike (S) protein, full-length, expressed on the surface of HEK-293T cells (SARS-CoV-2 prototype (MN908947.3), UniProt P0DTC2); assay: flow cytometry on cells; conditions: one partner purified
[3] = biological target: WIV1 spike (S) protein expressed on HEK-293T cells (Bat SARS-like coronavirus WIV1 …, UniProt U5WI05, strain); assay: flow cytometry on cells; conditions: one partner purified
[4] = biological target: HKU3 spike (S) protein expressed on HEK-293T cells (Bat SARS-like coronavirus HKU3, GenBank …, UniProt A0A7G6UAJ9, strain); assay: flow cytometry on cells; conditions: one partner purified
[5] = biological target: PANG/GD spike (S) protein expressed on HEK-293T cells (Pangolin coronavirus Guangdong …, strain); assay: flow cytometry on cells; conditions: one partner purified
[6] = biological target: T1, GST-fused truncated S2 protein S2 (D1139-L1152) (SARS-CoV-2, MN908947.3); assay: ELISA; […], room temperature; […]; conditions: both partners purified
T1 construct: not shown: GST, N-terminal, kept
T1 chain: DPLQPELDSFKEEL

[7] = biological target: S2 (T1076-Q1208) protein as coated in ELISA (devoid of the His tag) (SARS-CoV-2, MN908947.3, UniProt P0DTC2); assay: ELISA; […], room temperature; […]; conditions: both partners purified
[8] = biological target: T2, GST-fused truncated S2 protein S2 (L1141-L1152) (SARS-CoV-2 prototype (MN908947.3), UniProt P0DTC2); assay: ELISA; […], room temperature; […]; conditions: both partners purified
T2 construct: not shown: GST, N-terminal, kept
T2 chain: LQPELDSFKEEL

[9] = biological target: T3, GST-fused truncated S2 protein S2 (P1140-D1153) (SARS-CoV-2, MN908947.3, UniProt P0DTC2); assay: ELISA; […], room temperature; […]; conditions: both partners purified
T3 construct: not shown: GST, N-terminal, kept
T3 chain: PLQPELDSFKEELD

[10] = biological target: T4, GST-fused truncated S2 protein S2 (P1140-L1152) (SARS-CoV-2 prototype (MN908947.3), UniProt P0DTC2); assay: ELISA; […], room temperature; […]; conditions: both partners purified
T4 construct: not shown: GST, N-terminal, kept
T4 chain: PLQPELDSFKEEL

[11] = biological target: T5, GST-fused truncated S2 protein S2 (T1076-H1159) (SARS-CoV-2 prototype (MN908947.3), UniProt P0DTC2); assay: far-Western, overlay or dot blot; conditions: both partners purified
T5 construct: not shown: GST, N-terminal, kept

B1: nanobody H17 (VHH)
VHH: EVQVVESGGGLVQTGGSLRLSCAASGSAFSSYAVNWYRQAPGKQREPVAAIGSFNTVYSDSVKGRFTISRDNAKNTVYLQMNSLKPEDTAVYVCNARRGATNYWGQGTQVTVSP
notes: also called anti-SH nNb H17; not shown: His6, C-terminal, kept
binding result [1]: binds
binding result [2]: binds
binding result [3]: binds
binding result [4]: binds
binding result [5]: binds
EC50 [6]: 11.3 nM
binding result [7]: binds
binding result [8]: no binding (tested: 200 nM)
binding result [9]: no binding (tested: 200 nM)
binding result [10]: no binding (tested: 200 nM)
binding result [11]: binds
